The values below come from publication PMC4137706 (Molecular Biology and Evolution, 2014).

The target of test [1] is Full-length S. rosetta Flotillin 1 N-terminally tagged with GST (GST-SrFlotillin 1) (S. rosetta). Description: […].
The target in test [2] is T1, Full-length human Flotillin 1 N-terminally tagged with GST (GST-HsFlotillin 1) (human, UniProt O75955 1-427).
T1 sequence: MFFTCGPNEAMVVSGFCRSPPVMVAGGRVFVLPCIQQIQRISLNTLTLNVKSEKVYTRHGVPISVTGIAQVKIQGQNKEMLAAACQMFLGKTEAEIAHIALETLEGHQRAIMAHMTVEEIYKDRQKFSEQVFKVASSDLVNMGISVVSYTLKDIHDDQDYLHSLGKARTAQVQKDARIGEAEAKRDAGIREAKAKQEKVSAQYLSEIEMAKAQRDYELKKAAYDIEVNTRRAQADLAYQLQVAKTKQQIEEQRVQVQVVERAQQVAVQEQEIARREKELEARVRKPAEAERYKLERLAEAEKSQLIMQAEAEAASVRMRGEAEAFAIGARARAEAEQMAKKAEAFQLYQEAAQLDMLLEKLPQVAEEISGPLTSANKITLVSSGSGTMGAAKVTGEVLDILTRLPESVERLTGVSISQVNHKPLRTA
Briefly: pull-down.

“Full-length Salpingoeca rosetta Homer, N-terminally hexahistidine-tagged (His-SrHomer) (natural protein)”: in test [1], the dissociation constant (Kd) (as a rule, the concentration at which binding is half-saturated) stood at 960 nM.

B1: Full-length human Homer 1, N-terminally hexahistidine-tagged (His-HsHomer 1) (natural protein)
chain: MGEQPIFSTRAHVFQIDPNTKKNWVPTSKHAVTVSYFYDSTRNVYRIISLDGSKAIINSTITPNMTFTKTSQKFGQWADSRANTVYGLGFSSEHHLSKFAEKFQEFKEAARLAKEKSQEKMELTSTPSQESAGGDLQSPLTPESINGTDDERTPDVTQNSEPRAEPTQNALPFSHSSAISKHWEAELATLKGNNAKLTAALLESTANVKQWKQQLAAYQEEAERLHKRVTELECVSSQANAVHTHKTELNQTIQELEETLKLKEEEIERLKQEIDNARELQEQRDSLTQKLQEVEIRNKDLEGQLSDLEQRLEKSQNEQEAFRNNLKTLLEILDGKIFELTELRDNLAKLLECS
For B1, the Kd in test [2] was roughly 830 nM.
